Source: FireProtDB (doi:10.1093/protein/12.10.841)

Settings: Homo sapiens; pH 2.7; Thermal; DSC; glycine 0.05 M; reversible: yes; whole UniProt chain shown

B1: Lysozyme C wild type, P61626 (protein)
chain: MKALIVLGLVLLSVTVQGKVFERCELARTLKRLGMDGYRGISLANWMCLAKWESGYNTRATNYNAGDRSTDYGIFQINSRYWCNDGKTPGAVNACHLSCSALLQDNIADAVACAKRVVRDPQGIRAWVAWRNRCQNRDVRQYVQGCGV
- Tm: 64.9 °C
- heat capacity change of unfolding: 1.58 kcal/mol/K
- unfolding enthalpy (calorimetric): 114 kcal/mol
- unfolding enthalpy (van 't Hoff): 120 kcal/mol
